Assay results published in patent US20140294898A1 (published 2014).
Positions of bridges follow the written chain, without caps; N, C: chain ends. Non-standard residues stand in square brackets, D forms with d. Bta = N[C@@H](Cc1csc2ccccc12)C(=O)O; 3Thi = N[C@@H](Cc1ccsc1)C(=O)O; NMeNle = CCCC[C@H](NC)C(=O)O; dNle = CCCC[C@@H](N)C(=O)O; NMeS = CN[C@@H](CO)C(=O)O; NMeA = CN[C@@H](C)C(=O)O; Sar = CNCC(=O)O

Legend:
hPDL1(19-239)-TVMV-His = target: T1, hPDL1(19-239)-TVMV-His (human, UniProt Q9NZQ7 19-239); experiment: HTRF competition, PD-1-Ig (20 nM) binding to human PD-L1-His (10 nM)
T1 construct: The construct name says 19-239, the running text says amino acids 18-239; Expressed in HEK293T cells; also called PD-L1-His; PD-L1-TVMV-His
Method: All binding studies were performed in an HTRF assay buffer consisting of dPBS supplemented with 0.1% (w/v) bovine serum albumin and 0.05% (v/v) Tween-20. […] PD-L1 fusion proteins from either human, cynomologous macaques, or mouse were used. HTRF detection was achieved using europium crypate-labeled anti-Ig monoclonal antibody (1 nM final) and allophycocyanin (APC) labeled anti-His monoclonal antibody (20 nM final). Antibodies were diluted in HTRF detection buffer and 5 μl was dispensed on top of binding reaction. The reaction was allowed to equilibrate for 30 minutes and signal (665 nm/620 nm ratio) was obtained using an EnVision fluorometer. […]
HTRF Experiments were performed essentially as outlined supra. Variant macrocyclic peptides were created as outlined herein.

human PD-L1 = target: T2, human PD-L1 (human, UniProt Q9NZQ7 19-239, limits assumed); experiment: cell binding assay, inhibition of Hu PD-L1/PD-1 binding
T2 construct: also called Hu PD-L1; hPD-L1
T2 sequence (Q9NZQ7 19-239 limits assumed): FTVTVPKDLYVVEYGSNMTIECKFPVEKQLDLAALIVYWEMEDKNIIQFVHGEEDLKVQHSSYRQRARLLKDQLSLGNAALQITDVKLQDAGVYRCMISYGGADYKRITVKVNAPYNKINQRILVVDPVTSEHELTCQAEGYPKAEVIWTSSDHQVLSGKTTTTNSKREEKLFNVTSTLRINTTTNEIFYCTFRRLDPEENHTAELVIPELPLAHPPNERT

T1 sequence (Q9NZQ7 other isoform, or with tags, fused parts or gaps limits assumed): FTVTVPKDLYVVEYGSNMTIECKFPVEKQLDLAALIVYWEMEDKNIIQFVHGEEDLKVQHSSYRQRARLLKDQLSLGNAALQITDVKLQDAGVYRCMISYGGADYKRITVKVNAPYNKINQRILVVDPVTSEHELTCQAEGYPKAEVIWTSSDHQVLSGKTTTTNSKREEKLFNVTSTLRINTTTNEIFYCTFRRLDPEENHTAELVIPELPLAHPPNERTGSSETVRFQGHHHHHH

B1: Compound No. 52 (peptide)
peptide: FANPHLXWSWXXRCG
modifications: N-terminal chloroacetyl (ClAc) on residue 1 cyclized as thioether with Cys14; N-methyl-Ala (mAla) at 2; Dab (2,4-diaminobutyric acid, written X) at 7; N-methyl-norleucine (mNle, written X) at 11 and 12; C-terminal amide (NH2)
notes: macrocyclic peptide cyclized via the ClAc moiety with the downstream cysteine
B1 was tested, and the IC50 (hPDL1(19-239)-TVMV-His) was 24 nM.

B2: Compound No. 60 (peptide)
peptide: {CH2CO}-F[NMeA]NPHL[Sar]WAW[NMeNle][NMeNle]ACG-NH2
modifications: thioether N-14
SMILES: CCCC[C@H]1C(=O)N(C)[C@@H](CCCC)C(=O)N[C@@H](C)C(=O)N[C@H](C(=O)NCC(N)=O)CSCC(=O)N[C@@H](Cc2ccccc2)C(=O)N(C)[C@@H](C)C(=O)N[C@@H](CC(N)=O)C(=O)N2CCC[C@H]2C(=O)N[C@@H](Cc2c[nH]cn2)C(=O)N[C@@H](CC(C)C)C(=O)N(C)CC(=O)N[C@@H](Cc2c[nH]c3ccccc23)C(=O)N[C@@H](C)C(=O)N[C@@H](Cc2c[nH]c3ccccc23)C(=O)N1C
notes: as for B1
Work on B2 yielded an IC50 (hPDL1(19-239)-TVMV-His) of 43 nM.

B3: Compound No. 52 (peptide)
peptide: FANPHLXWSWXXRCG
modifications: ClAc on N-terminus cyclized as thioether with Cys14; mAla (N-methyl-Ala) at 2; Dab (2,4-diaminobutyric acid, written X) at 7; mNle (N-methyl-norleucine, written X) at 11 and 12; C-terminal NH2
notes: macrocyclic peptide, Formula I series; also called Compound 52
With B3 the IC50 (human PD-L1) was 108 nM.

B4: Compound No. 64 (peptide)
peptide: {CH2CO}-F[NMeA]NPHL[Sar]WS[Bta][NMeNle][NMeNle]RCG-NH2
modifications: thioether N-14
SMILES: CCCC[C@H]1C(=O)N(C)[C@@H](CCCC)C(=O)N[C@@H](CCCNC(=N)N)C(=O)N[C@H](C(=O)NCC(N)=O)CSCC(=O)N[C@@H](Cc2ccccc2)C(=O)N(C)[C@@H](C)C(=O)N[C@@H](CC(N)=O)C(=O)N2CCC[C@H]2C(=O)N[C@@H](Cc2c[nH]cn2)C(=O)N[C@@H](CC(C)C)C(=O)N(C)CC(=O)N[C@@H](Cc2c[nH]c3ccccc23)C(=O)N[C@@H](CO)C(=O)N[C@@H](Cc2csc3ccccc23)C(=O)N1C
notes: as for B1
For B4, the IC50 (hPDL1(19-239)-TVMV-His) was 7 nM.

B5: Compound No. 69 (peptide)
peptide: FANPHLGWSWFXRCG
HELM: PEPTIDE1{[O=C(C[*:3])[*:2]].F.[meA].N.P.H.L.[Sar].W.S.W.F.[CCCC[C@@H](C(=O)[*:2])N(C)[*:1]].R.C.G.[am]}$PEPTIDE1,PEPTIDE1,1:R3-15:R3$$$V2.0
SMILES: CCCC[C@H]1C(=O)N[C@@H](CCCNC(=N)N)C(=O)N[C@H](C(=O)NCC(N)=O)CSCC(=O)N[C@@H](Cc2ccccc2)C(=O)N(C)[C@@H](C)C(=O)N[C@@H](CC(N)=O)C(=O)N2CCC[C@H]2C(=O)N[C@@H](Cc2c[nH]cn2)C(=O)N[C@@H](CC(C)C)C(=O)N(C)CC(=O)N[C@@H](Cc2c[nH]c3ccccc23)C(=O)N[C@@H](CO)C(=O)N[C@@H](Cc2c[nH]c3ccccc23)C(=O)N[C@@H](Cc2ccccc2)C(=O)N1C
notes: macrocyclic peptide, Formula I series; Phe at 11 is not N-methylated; also called Compound 69
Work on B5 yielded an IC50 (human PD-L1) of 351 nM.

B6: Compound No. 70 (peptide)
peptide: {CH2CO}-F[NMeA]NPHL[Sar]WSW[dNle][NMeNle]RCG-NH2
modifications: thioether N-14
SMILES: CCCC[C@H]1NC(=O)[C@H](Cc2c[nH]c3ccccc23)NC(=O)[C@H](CO)NC(=O)[C@H](Cc2c[nH]c3ccccc23)NC(=O)CN(C)C(=O)[C@H](CC(C)C)NC(=O)[C@H](Cc2c[nH]cn2)NC(=O)[C@@H]2CCCN2C(=O)[C@H](CC(N)=O)NC(=O)[C@H](C)N(C)C(=O)[C@H](Cc2ccccc2)NC(=O)CSC[C@@H](C(=O)NCC(N)=O)NC(=O)[C@H](CCCNC(=N)N)NC(=O)[C@H](CCCC)N(C)C1=O
notes: as for B1
With B6 the IC50 (hPDL1(19-239)-TVMV-His) was 8680 nM.

B7: Compound No. 51 (peptide)
peptide: {CH2CO}-F[NMeA]NPHD[Sar]WSW[NMeNle][NMeNle]RCG-NH2
modifications: thioether N-14
SMILES: CCCC[C@H]1C(=O)N(C)[C@@H](CCCC)C(=O)N[C@@H](CCCNC(=N)N)C(=O)N[C@H](C(=O)NCC(N)=O)CSCC(=O)N[C@@H](Cc2ccccc2)C(=O)N(C)[C@@H](C)C(=O)N[C@@H](CC(N)=O)C(=O)N2CCC[C@H]2C(=O)N[C@@H](Cc2c[nH]cn2)C(=O)N[C@@H](CC(=O)O)C(=O)N(C)CC(=O)N[C@@H](Cc2c[nH]c3ccccc23)C(=O)N[C@@H](CO)C(=O)N[C@@H](Cc2c[nH]c3ccccc23)C(=O)N1C
notes: as for B1
Work on B7 yielded an IC50 (hPDL1(19-239)-TVMV-His) of 23 nM.

B8: Compound No. 54 (peptide)
peptide: {CH2CO}-F[NMeA]NPHLRWSW[NMeNle][NMeNle]RCG-NH2
modifications: thioether N-14
SMILES: CCCC[C@H]1C(=O)N(C)[C@@H](CCCC)C(=O)N[C@@H](CCCNC(=N)N)C(=O)N[C@H](C(=O)NCC(N)=O)CSCC(=O)N[C@@H](Cc2ccccc2)C(=O)N(C)[C@@H](C)C(=O)N[C@@H](CC(N)=O)C(=O)N2CCC[C@H]2C(=O)N[C@@H](Cc2c[nH]cn2)C(=O)N[C@@H](CC(C)C)C(=O)N[C@@H](CCCNC(=N)N)C(=O)N[C@@H](Cc2c[nH]c3ccccc23)C(=O)N[C@@H](CO)C(=O)N[C@@H](Cc2c[nH]c3ccccc23)C(=O)N1C
notes: as for B1
Binder B8 has an IC50 (hPDL1(19-239)-TVMV-His) of 26 nM.

B9: Compound No. 55 (peptide)
peptide: {CH2CO}-F[NMeA]NPHLPWSW[NMeNle][NMeNle]RCG-NH2
modifications: thioether N-14
SMILES: CCCC[C@H]1C(=O)N(C)[C@@H](CCCC)C(=O)N[C@@H](CCCNC(=N)N)C(=O)N[C@H](C(=O)NCC(N)=O)CSCC(=O)N[C@@H](Cc2ccccc2)C(=O)N(C)[C@@H](C)C(=O)N[C@@H](CC(N)=O)C(=O)N2CCC[C@H]2C(=O)N[C@@H](Cc2c[nH]cn2)C(=O)N[C@@H](CC(C)C)C(=O)N2CCC[C@H]2C(=O)N[C@@H](Cc2c[nH]c3ccccc23)C(=O)N[C@@H](CO)C(=O)N[C@@H](Cc2c[nH]c3ccccc23)C(=O)N1C
notes: as for B1
B9 showed an IC50 (hPDL1(19-239)-TVMV-His) of 4 nM.

B10: Compound No. 53 (peptide)
peptide: {CH2CO}-F[NMeA]NPHLHWSW[NMeNle][NMeNle]RCG-NH2
modifications: thioether N-14
SMILES: CCCC[C@H]1C(=O)N(C)[C@@H](CCCC)C(=O)N[C@@H](CCCNC(=N)N)C(=O)N[C@H](C(=O)NCC(N)=O)CSCC(=O)N[C@@H](Cc2ccccc2)C(=O)N(C)[C@@H](C)C(=O)N[C@@H](CC(N)=O)C(=O)N2CCC[C@H]2C(=O)N[C@@H](Cc2c[nH]cn2)C(=O)N[C@@H](CC(C)C)C(=O)N[C@@H](Cc2c[nH]cn2)C(=O)N[C@@H](Cc2c[nH]c3ccccc23)C(=O)N[C@@H](CO)C(=O)N[C@@H](Cc2c[nH]c3ccccc23)C(=O)N1C
notes: as for B1
Binder B10 has an IC50 (hPDL1(19-239)-TVMV-His) of 34 nM.

B11: Compound No. 62 (peptide)
peptide: {CH2CO}-F[NMeA]NPHL[Sar]WSI[NMeNle][NMeNle]RCG-NH2
modifications: thioether N-14
SMILES: CCCC[C@H]1C(=O)N(C)[C@@H](CCCC)C(=O)N[C@@H](CCCNC(=N)N)C(=O)N[C@H](C(=O)NCC(N)=O)CSCC(=O)N[C@@H](Cc2ccccc2)C(=O)N(C)[C@@H](C)C(=O)N[C@@H](CC(N)=O)C(=O)N2CCC[C@H]2C(=O)N[C@@H](Cc2c[nH]cn2)C(=O)N[C@@H](CC(C)C)C(=O)N(C)CC(=O)N[C@@H](Cc2c[nH]c3ccccc23)C(=O)N[C@@H](CO)C(=O)N[C@@H]([C@@H](C)CC)C(=O)N1C
notes: as for B1
B11 was tested, and the IC50 (hPDL1(19-239)-TVMV-His) was 475 nM.

B12: Compound No. 63 (peptide)
peptide: {CH2CO}-F[NMeA]NPHL[Sar]WSL[NMeNle][NMeNle]RCG-NH2
modifications: thioether N-14
SMILES: CCCC[C@H]1C(=O)N(C)[C@@H](CCCC)C(=O)N[C@@H](CCCNC(=N)N)C(=O)N[C@H](C(=O)NCC(N)=O)CSCC(=O)N[C@@H](Cc2ccccc2)C(=O)N(C)[C@@H](C)C(=O)N[C@@H](CC(N)=O)C(=O)N2CCC[C@H]2C(=O)N[C@@H](Cc2c[nH]cn2)C(=O)N[C@@H](CC(C)C)C(=O)N(C)CC(=O)N[C@@H](Cc2c[nH]c3ccccc23)C(=O)N[C@@H](CO)C(=O)N[C@@H](CC(C)C)C(=O)N1C
notes: as for B1
B12 showed an IC50 (hPDL1(19-239)-TVMV-His) of 3660 nM.

B13: Compound No. 56 (peptide)
peptide: {CH2CO}-F[NMeA]NPHL[NMeS]WSW[NMeNle][NMeNle]RCG-NH2
modifications: thioether N-14
SMILES: CCCC[C@H]1C(=O)N(C)[C@@H](CCCC)C(=O)N[C@@H](CCCNC(=N)N)C(=O)N[C@H](C(=O)NCC(N)=O)CSCC(=O)N[C@@H](Cc2ccccc2)C(=O)N(C)[C@@H](C)C(=O)N[C@@H](CC(N)=O)C(=O)N2CCC[C@H]2C(=O)N[C@@H](Cc2c[nH]cn2)C(=O)N[C@@H](CC(C)C)C(=O)N(C)[C@@H](CO)C(=O)N[C@@H](Cc2c[nH]c3ccccc23)C(=O)N[C@@H](CO)C(=O)N[C@@H](Cc2c[nH]c3ccccc23)C(=O)N1C
notes: as for B1
Binder B13 has an IC50 (hPDL1(19-239)-TVMV-His) of 13 nM.

B14: Compound No. 61 (peptide)
peptide: {CH2CO}-F[NMeA]NPHL[Sar]WSM[NMeNle][NMeNle]RCG-NH2
modifications: thioether N-14
SMILES: CCCC[C@H]1C(=O)N(C)[C@@H](CCCC)C(=O)N[C@@H](CCCNC(=N)N)C(=O)N[C@H](C(=O)NCC(N)=O)CSCC(=O)N[C@@H](Cc2ccccc2)C(=O)N(C)[C@@H](C)C(=O)N[C@@H](CC(N)=O)C(=O)N2CCC[C@H]2C(=O)N[C@@H](Cc2c[nH]cn2)C(=O)N[C@@H](CC(C)C)C(=O)N(C)CC(=O)N[C@@H](Cc2c[nH]c3ccccc23)C(=O)N[C@@H](CO)C(=O)N[C@@H](CCSC)C(=O)N1C
notes: as for B1
For B14, the IC50 (hPDL1(19-239)-TVMV-His) was 31 nM.

B15: Compound No. 40 (peptide)
peptide: {CH2CO}-[3Thi][NMeA]NPHL[Sar]WSW[NMeNle][NMeNle]RCG-NH2
modifications: thioether N-14
SMILES: CCCC[C@H]1C(=O)N(C)[C@@H](CCCC)C(=O)N[C@@H](CCCNC(=N)N)C(=O)N[C@H](C(=O)NCC(N)=O)CSCC(=O)N[C@@H](Cc2ccsc2)C(=O)N(C)[C@@H](C)C(=O)N[C@@H](CC(N)=O)C(=O)N2CCC[C@H]2C(=O)N[C@@H](Cc2c[nH]cn2)C(=O)N[C@@H](CC(C)C)C(=O)N(C)CC(=O)N[C@@H](Cc2c[nH]c3ccccc23)C(=O)N[C@@H](CO)C(=O)N[C@@H](Cc2c[nH]c3ccccc23)C(=O)N1C
notes: macrocyclic peptide, Formula I series; also called Compound 40
Work on B15 yielded an IC50 (human PD-L1) of 20 nM.
